Assays:
Internalin A (InlA) [1] = biological target: T1, Internalin A (InlA) (Listeria monocytogenes, UniProt P0DJM0 P0DJM0:36-770); test: ELONA; strong ELISA signal compared to library; details: tags: His-tag
T1 sequence: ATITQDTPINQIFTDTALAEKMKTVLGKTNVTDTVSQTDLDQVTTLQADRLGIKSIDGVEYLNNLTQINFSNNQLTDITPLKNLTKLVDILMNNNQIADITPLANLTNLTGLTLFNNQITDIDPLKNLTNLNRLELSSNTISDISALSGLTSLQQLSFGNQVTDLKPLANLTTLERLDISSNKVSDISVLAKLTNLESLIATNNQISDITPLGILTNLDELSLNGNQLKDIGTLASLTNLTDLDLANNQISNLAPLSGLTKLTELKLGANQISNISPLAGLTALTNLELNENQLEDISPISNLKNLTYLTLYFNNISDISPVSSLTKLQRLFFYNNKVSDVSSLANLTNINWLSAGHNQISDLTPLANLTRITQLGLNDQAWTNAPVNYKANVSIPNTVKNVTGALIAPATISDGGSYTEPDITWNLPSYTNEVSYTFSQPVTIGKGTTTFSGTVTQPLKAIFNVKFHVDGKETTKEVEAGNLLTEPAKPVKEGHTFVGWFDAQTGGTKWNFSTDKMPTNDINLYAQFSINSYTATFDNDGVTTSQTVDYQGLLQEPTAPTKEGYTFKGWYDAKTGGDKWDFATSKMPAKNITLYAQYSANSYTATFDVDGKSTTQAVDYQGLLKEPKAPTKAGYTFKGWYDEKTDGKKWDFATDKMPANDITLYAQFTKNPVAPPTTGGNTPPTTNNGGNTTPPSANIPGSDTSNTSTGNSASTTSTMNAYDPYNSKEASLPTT
Description: A nickel-coated microplate (HisSorb, Qiagen) was used to bind 500 ng his-tagged inlA, peptide D or 0610 (Listeria monocytogenes-specific non-internalin cell wall protein) to the plate as per manufacturer's directions. Biotinylated aptamer or aptamer library (5 ng/μL) was heated to 95° C. for 3 minutes and quickly cooled to 4° C. for 5 minutes before application to each well. The biotinylated aptamer or aptamer library was incubated with the bound proteins in the HisSorb plate overnight at 4° C. with gentle shaking. Wells were then washed four times with 200 μL PBS-T. Streptavidin-horseradish peroxidase was added to the wells for 30 minutes at room temperature with gentle shaking. The wells were washed as described previously before development with TMB (Pierce). The reactions were stopped with 1M H₂SO₄ and absorbance was measured at 450 nm using a ThermoMax microplate reader (Molecular Devices). In FIG. 6, the initial aptamer library was used as a negative control, and the data represents the average±S.D. of n=3. […] The amount of selected aptamer bound to the particular proteins was determined by absorbance measured. The data represents the average±S.D. of n=3.

Internalin A (InlA) [2] = biological target: T1, Internalin A (InlA); test: competition; competitive ELISA, sigmoidal fit; details: tags: His-tag
Description: A specified amount of internalin A (500 ng) was coated on the plate. 5 ng/uL biotinylated aptamer A8 (SEQ ID NO:21) was incubated with increasing amounts of non-biotinylated aptamer A8 and then applied to the coated plates. Using GraphPad Prism 4 software, the Sigmoidal model (equation: a+(b−a)/(1+10̂(x−c))) was used to determine EC50.

Does ATCTAGGACTGGGTGGGAAGGGATGGGAAAAATGTCCGCGCCTCGAT (ssDNA) [InlA aptamer SEQ 22] bind (Internalin A (InlA) [1])?
Result: binds

For ATCCATGGGGCGGAGATGAGGGGGAGGAGGGCGGGTACCCGGTTGAT (ssDNA) [A8], which EC50 (Internalin A (InlA) [2]) is on record?
Its EC50 is 544 nM.

Does ATCGGGTTATAGTTAGCGGGTAGGGGAGGGAGGGTAGATAGCTCGAT (ssDNA) [InlA aptamer SEQ 25] bind (Internalin A (InlA) [1])?
Result: binds

Does ATCAGCAACAAGTGTGGGTAAGGGGAGGGCGGGAATGGGATGATGAT (ssDNA) [InlA aptamer SEQ 23] bind (Internalin A (InlA) [1])?
Result: binds

Does ATCGGATGTGGGCAGGGGGGGGTGGGAAACGATTACAGACACAAGAT (ssDNA) [InlA aptamer SEQ 24] bind (Internalin A (InlA) [1])?
Result: binds
